First the molecules themselves.
T1: recombinant FLAG5, His6-tagged GINS (Psf1, Psf2, Psf3 and Sld5) (Xenopus laevis, UniProt Q7ZT47 1-196; Q7ZT46 1-185; Q7ZT01 1-210; Q7ZT48 1-221)
T1 construct: Psf1, subunit of GINS, Xenopus laevis; Psf2, subunit of GINS, Xenopus laevis; Psf3, subunit of GINS, Xenopus laevis; Sld5, subunit of GINS, Xenopus laevis; also called recombinant GINS; FLAG-tagged GINS; copies: + + +
T1 sequence (looked up) 1: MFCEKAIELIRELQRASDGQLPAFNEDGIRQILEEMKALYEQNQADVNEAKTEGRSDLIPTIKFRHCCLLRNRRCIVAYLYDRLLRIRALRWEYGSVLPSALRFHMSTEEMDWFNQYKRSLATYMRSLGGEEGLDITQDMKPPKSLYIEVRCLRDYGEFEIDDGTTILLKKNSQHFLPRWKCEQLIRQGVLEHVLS
T1 sequence (looked up) 2: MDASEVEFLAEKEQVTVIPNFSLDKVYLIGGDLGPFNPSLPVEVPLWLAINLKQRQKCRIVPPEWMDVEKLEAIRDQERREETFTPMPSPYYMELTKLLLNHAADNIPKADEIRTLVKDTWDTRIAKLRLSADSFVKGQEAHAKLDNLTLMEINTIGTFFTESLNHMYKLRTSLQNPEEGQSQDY
T1 sequence (looked up) 3: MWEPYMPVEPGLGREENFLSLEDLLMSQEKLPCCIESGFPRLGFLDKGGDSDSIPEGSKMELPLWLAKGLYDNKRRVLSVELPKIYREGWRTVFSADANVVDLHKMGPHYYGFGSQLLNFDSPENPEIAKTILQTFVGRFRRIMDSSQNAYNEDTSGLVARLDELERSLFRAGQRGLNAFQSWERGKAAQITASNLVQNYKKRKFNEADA
T1 sequence (looked up) 4: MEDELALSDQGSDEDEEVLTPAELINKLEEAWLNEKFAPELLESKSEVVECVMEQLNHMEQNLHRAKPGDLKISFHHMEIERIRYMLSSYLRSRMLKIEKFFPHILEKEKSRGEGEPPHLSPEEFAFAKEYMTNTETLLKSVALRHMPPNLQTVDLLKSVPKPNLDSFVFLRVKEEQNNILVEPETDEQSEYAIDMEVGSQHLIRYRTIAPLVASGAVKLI

B1: recombinant Xenopus laevis DONSON WT (natural protein)
chain: MAELLPGYSPSFKKPSEILRLSRRRSRSEASKTGLSPFSPGDVIKRVPGLRPFSPGPNKGAGVKRRNPFASLENTVCSPVKRRAETVAEYGAASLEPRALSAVRPSCLGQDSPEPPQFNSVEDVIWGDPLAADADPLVKTESPEKPAPACEIPKGSVTFPADWSLKTRLLFTSSHSFSWADHLKAQEEAQGLVMQCRATAVNLPHSIQEPKLSTDLRCAFQQSLVHWIHPSLPWVQLFPRIGVDRKMAGKNTPWSQDESLQQVLMSEWALSFTSLYNLLKAKLCPYFYVCTYQFTVLFRAAGLAGSDVITAVMSPTTRGLREAMKNEGITFSQPLVEDDTGKKQKKPEAASQGDINPEKENGTAEADEASDESDEDESFSWLEEMGVEDKIKKPDSISIKLRKEKNEVKLDHKPESVVLVKGTNTFTLLNFLINCKSIVAAAGLQAGLPPTLLSPVAFRGATMHALKARSVNVKTRVNSGYKDQFSLEITGPIMPHSLHSLTMLLQSAQRGSFSAGLYTHEPTAVFNTPIHSQAVKEISADLQNCGLHPCTVEQLTQVNELGKLSLRHLEMTDYRYTWK
notes: DONSON (Downstream neighbor of Son), Xenopus laevis; also called WT DONSON; WT recombinant DONSON; source: E. coli BL21 (DE3), purified (Ni-NTA)
B2: DONSON 3A (V473A; R476A; Y481A) (natural protein, Xenopus laevis)
chain: B1 chain with V473A, R476A, Y481A
notes: DONSON, Xenopus laevis; also called pET28a-DONSON-3A; source: E. coli BL21 (DE3), purified (Ni-NTA)
B3: DONSONΔ24 (truncation of residues 1–24) (domain or fragment, Xenopus laevis, UniProt Q5U4U4 25-579, looked up)
chain: RSRSEASKTGLSPFSPGDVIKRVPGLRPFSPGPNKGAGVKRRNPFASLENTVCSPVKRRAETVAEYGAASLEPRALSAVRPSCLGQDSPEPPQFNSVEDVIWGDPLAADADPLVKTESPEKPAPACEIPKGSVTFPADWSLKTRLLFTSSHSFSWADHLKAQEEAQGLVMQCRATAVNLPHSIQEPKLSTDLRCAFQQSLVHWIHPSLPWVQLFPRIGVDRKMAGKNTPWSQDESLQQVLMSEWALSFTSLYNLLKAKLCPYFYVCTYQFTVLFRAAGLAGSDVITAVMSPTTRGLREAMKNEGITFSQPLVEDDTGKKQKKPEAASQGDINPEKENGTAEADEASDESDEDESFSWLEEMGVEDKIKKPDSISIKLRKEKNEVKLDHKPESVVLVKGTNTFTLLNFLINCKSIVAAAGLQAGLPPTLLSPVAFRGATMHALKARSVNVKTRVNSGYKDQFSLEITGPIMPHSLHSLTMLLQSAQRGSFSAGLYTHEPTAVFNTPIHSQAVKEISADLQNCGLHPCTVEQLTQVNELGKLSLRHLEMTDYRYTWK
notes: DONSON, Xenopus laevis, without residues 1-24; See the note of m17 on a possible Myc tag; also called DONSON D24 (D1-24); pET28a-DONSON Δ24 (1-24 removed); source: E. coli BL21 (DE3), purified (Ni-NTA)
B4: DONSON ΔD1 (Δ1-155) (domain or fragment, Xenopus laevis, UniProt Q5U4U4 156-579, looked up)
chain: SVTFPADWSLKTRLLFTSSHSFSWADHLKAQEEAQGLVMQCRATAVNLPHSIQEPKLSTDLRCAFQQSLVHWIHPSLPWVQLFPRIGVDRKMAGKNTPWSQDESLQQVLMSEWALSFTSLYNLLKAKLCPYFYVCTYQFTVLFRAAGLAGSDVITAVMSPTTRGLREAMKNEGITFSQPLVEDDTGKKQKKPEAASQGDINPEKENGTAEADEASDESDEDESFSWLEEMGVEDKIKKPDSISIKLRKEKNEVKLDHKPESVVLVKGTNTFTLLNFLINCKSIVAAAGLQAGLPPTLLSPVAFRGATMHALKARSVNVKTRVNSGYKDQFSLEITGPIMPHSLHSLTMLLQSAQRGSFSAGLYTHEPTAVFNTPIHSQAVKEISADLQNCGLHPCTVEQLTQVNELGKLSLRHLEMTDYRYTWK
notes: DONSON, Xenopus laevis, without residues 1-155 (the unstructured D1 loop); also called DONSON DD1 (D1-155); pET28a-DONSON ΔD1; source: recombinant (pET28a vector)
B5: DONSON DEW (D374A; E377A; W381A) (natural protein, Xenopus laevis)
chain: B1 chain with D374A, E377A, W381A
notes: DONSON, Xenopus laevis; also called pET28a-DONSON-DEW; source: E. coli BL21 (DE3), purified (Ni-NTA)
B6: DONSON DEWS (D374A; E377A; W381A; S437A) (natural protein, Xenopus laevis)
chain: B1 chain with D374A, E377A, W381A, S437A
notes: DONSON, Xenopus laevis; also called pET28a-DONSON-DEWS; source: E. coli BL21 (DE3), purified (Ni-NTA)
B7: DONSON S437A (natural protein, Xenopus laevis)
chain: B1 chain with S437A
notes: DONSON, Xenopus laevis; also called DONSON Ser437Ala; pET28a-DONSON-S437A; source: E. coli BL21 (DE3), purified (Ni-NTA)

Where a chain is given by its changes, count along the chain named. Names may count otherwise.

In the first data set the target is T1, recombinant FLAG5, His6-tagged GINS …. Kind of data set: co-IP; recombinant FLAG-tagged GINS immunoprecipitated after incubation with recombinant DONSON variants; blot with an anti-DONSON antibody (Figure S5B). The conditions noted are these: both partners purified.
B1: the binding result is on record as “binds”. Still for that read-out and setting: with B2 the entry was “binds”.

The next data set concerns the target DONSON WM (W234L; M463T) (Xenopus laevis) (UniProt Q5U4U4). Kind of data set: mass photometry; protein concentration varied (Figure S7); DONSON WM at 20 nM; monomer to dimer.
Conditions: not given
“DONSON WM (W234L; M463T) (from UniProt Q5U4U4 1-579) (natural protein)” gave a stoichiometry N of 2.

Another data set deals with the molecule itself. Kind of data set: mass photometry; recombinant DONSON proteins diluted ten-fold into Dulbecco PBS to a final concentration of 3 to 5 nM; TwoMP (Refeyn); monomer to dimer.
Conditions: not given
As to B3, the “stoichiometry N” value stood at 2.

As to B4, the “stoichiometry N” value is 2.

B1: the “stoichiometry N” value came to 2. Regarding B5, the “stoichiometry N” value was found to be 2.

For B6, the “stoichiometry N” value was 2. Same read-out and setting: with B7 the figure was 2. Consider B2, for which the “stoichiometry N” value turned out to be 2.

One may read the stoichiometry N as a count of units in the complex or per binding partner.
